Test results reported in patent US20220106398A1 (IGM BIOSCIENCES, published 2022).

T1: GITR on GITR/NFkB-luciferase reporter Jurkat cells (UniProt Q9Y5U5 26-241, limits assumed)
T1 sequence (looked up): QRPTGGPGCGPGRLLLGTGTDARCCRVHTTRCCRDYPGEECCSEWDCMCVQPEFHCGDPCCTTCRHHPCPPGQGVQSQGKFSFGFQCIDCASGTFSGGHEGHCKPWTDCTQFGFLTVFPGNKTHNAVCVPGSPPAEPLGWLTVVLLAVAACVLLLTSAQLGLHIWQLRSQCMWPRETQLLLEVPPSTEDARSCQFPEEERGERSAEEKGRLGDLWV

T2: human GITR on HEK 293 cells (human, UniProt Q9Y5U5 26-241)
T2 construct: Bought cell line; also called GITR-expressing 293 cells; HEK 293 cells expressing human GITR (CrownBio, #C2011)
T2 sequence: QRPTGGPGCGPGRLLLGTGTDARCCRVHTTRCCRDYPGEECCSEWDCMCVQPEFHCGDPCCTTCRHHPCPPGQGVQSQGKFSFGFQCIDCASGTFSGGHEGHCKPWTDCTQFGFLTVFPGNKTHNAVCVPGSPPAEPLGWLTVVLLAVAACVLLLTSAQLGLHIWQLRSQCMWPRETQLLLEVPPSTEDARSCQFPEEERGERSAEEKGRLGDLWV


Key:
[1] = biological target: T1, GITR on GITR/NFkB-luciferase reporter …; test: cell-based or functional assay
[2] = biological target: T2, human GITR on HEK 293 cells; test: flow cytometry on HEK 293 cells expressing human GITR
Protocol: Cells were washed twice, then stained for 30 minutes at 4° C. with 5 ug/mL mouse anti-human kappa-ALEXA FLUOR® 647 secondary antibody (Southern Biotech #9230-31) diluted in FACS buffer. Cells were washed twice, resuspended in FACS Stain Buffer, and signal was acquired by flow cytometry.

Row | EC50 [1] [mg/L] | Max Fold activation [1] [fold] | binding result [2] | Binder
1 | 5 | 1.3 | – | GITR-Mab-3 IgM/J* (antibody, not shown: a dimerising Fc or GST; large carriers) heavy: QVQLVQSGAEVKKPGASVKVSCKASGYTFTSYDINWVRQAPGQGLEWMGWISGYNGNTNYAQKFQGRVTMTRDTSTSTVYMELSSLRSEDTAVYYCARSHEYYYYYGMDVWGQGTLVTVSS light: EIVMTQSPATLSVSPGERATLSCRASQSVSSSYLAWYQQKPGQAPRLLIYGASTRATGIPARFSGSGSGTEFTLTISSLQSEDFAVYYCQQYYTTPFTFGPGTKVDIK not shown
2 | – | – | binds | GITR-Mab-6 IgM/J* (antibody, IgM with variant J-chain J* (Y102A); not shown: IgM heavy chain constant region of proprietary vector; light chain constant region of proprietary vector (detected with anti-human kapp)) heavy: QVQLVQSGAEVKKPGASVKVSCKASGYAFTAYYLHWVRQAPGQGLEWMGWMNPNSGNTGYAQKFQGRVTMTRDTSTSTVYMELSSLRSEDTAVYYCAREGWGYYDGGFDPWGQGTLVTVSS light: not shown not shown
3 | 0.34 | 1.6 | – | GITR-Mab-14 IgM/J* (antibody, not shown: a dimerising Fc or GST; large carriers) heavy: EVQLLESGGGLVKPGGSLRLSCAASGFRFSVYWMSWVRQAPGKGLEWVSGISGSGGTTYYADSVKGRFTISRDDSKNTLYLQMNSLKTEDTAVYYCARVRRDGYNYNFDYWGQGTLVTVSS light: DIQMTQSPSSLSASVGDRVTITCQASQDISNYLNWYQQKPGKAPKLLIFDASSLEAGVPSRFSGSGSGTDFTLTISSLQPEDFATYYCQQANSFPPTFGQGTEVEIK not shown
